B1: 8-103 (ssRNA)
RNA: GGGAGGACGAUGCGGGCCGAAAAUUCGUCGACAUCUCCCUGUCUGCAGACGACUCGCCCGA
modifications: 2'-F pyrimidines
B2: 11-151 (ssRNA)
RNA: GGGAGGACGAUGCGGUGAGUCAUAGUGUUGAUCGUCGUAUCCCGUCAGACGACUCGCCCGA
modifications: 2'-F pyrimidines
B3: 8-3 (ssRNA)
RNA: GGGAGGACGAUGCGGAUCCCGCGACCAGGGCGUUUCUUCCUCGUCCCAGACGACUCGCCCGA
modifications: 2'-F pyrimidines
B4: 8-112 (ssRNA)
RNA: GGGAGGACGAUGCGGUCCCGAAUUUAAGUGCGUUUCCUCCGCGUCCAGACGACUCGCCCGA
modifications: 2'-F pyrimidines
B5: 8-123 (ssRNA)
RNA: GGGAGGACGAUGCGGUCCCGAGUUUGAGGGCGUUUCUUCUUCGUCCAGACGACUCGCCCGA
modifications: 2'-F pyrimidines
B6: 8-154 (ssRNA)
RNA: GGGAGGACGAUGCGGUCCCAAGAUUCAGGGCGUUUCUUCCUCGUCCAGACGACUCGCCCGA
modifications: 2'-F pyrimidines
B7: 11-208 (ssRNA)
RNA: GGGAGGACGAUGCGGGUUUGAGUGACGAUCGUCUUGUCCCAUGUGCAGACGACUCGCCCGA
modifications: 2'-F pyrimidines
B8: 11-7 (ssRNA)
RNA: GGGAGGACGAUGCGGGUGGAGUCAAAUCGUCUUGUCCCUUGUCCUCAGACGACUCGCCCGA
modifications: 2'-F pyrimidines
B9: 8-119 (ssRNA)
RNA: GGGAGGACGAUGCGGGCCAUUCGAUCGAUUCUCCGCCGGAUCGUGCAGACGACUCGCCCGA
modifications: 2'-F pyrimidines
B10: 8-118 (ssRNA)
RNA: GGGAGGACGAUGCGGGGCGACUUUCCUCCAAUUCUCACCUCUGCACAGACGACUCGCCCGA
modifications: 2'-F pyrimidines
B11: 8-113 (ssRNA)
RNA: GGGAGGACGAUGCGGUGAAUUCCUCUGGCUGAAAAUGACUUGUGCCAGACGACUCGCCCGA
modifications: 2'-F pyrimidines
B12: 11-163 (ssRNA)
RNA: GGGAGGACGAUGCGGGCUUGAGUCUUUGAUCGUCUUAUCCCUCGUCAGACGACUCGCCCGA
modifications: 2'-F pyrimidines
B13: 8-17 (ssRNA)
RNA: GGGAGGACGAUGCGGGCGGCUCGAUGUCGUCUUAUCCCUUUGCCCCAGACGACUCGCCCGA
modifications: 2'-F pyrimidines
B14: 8-158 (ssRNA)
RNA: GGGAGGACGAUGCGGCCGGCUCGAUGUCGUCUUACCCCUUUGCCCCAGACGACUCGCCCGA
modifications: 2'-F pyrimidines
B15: 11-223 (ssRNA)
RNA: GGGAGGACGAUGCGGUCAGUAUGGCUUCUAUAGCUCGUUCCUCGGCAGACGACUCGCCCGA
modifications: 2'-F pyrimidines
B16: 8-126 (ssRNA)
RNA: GGGAGGACGAUGCGGGUGACUCAAAAUGGUGAUCCUCGUUUCCGCCAGACGACUCGCCCGA
modifications: 2'-F pyrimidines
B17: 11-65 (ssRNA)
RNA: GGGAGGACGAUGCGGUGAUAACCUGUUUAUGCCAUCGUGCUGGGCCAGACGACUCGCCCGA
modifications: 2'-F pyrimidines
B18: 11-215 (ssRNA)
RNA: GGGAGGACGAUGCGGGUAGUGAGUUUUCAUUGUCUUGUCCCCGUGCAGACGACUCGCCCGA
modifications: 2'-F pyrimidines
B19: 11-9 (ssRNA)
RNA: GGGAGGACGAUGCGGCGUGAGCCUGUUUAUGACCUCGUCCAUGGCCAGACGACUCGCCCGA
modifications: 2'-F pyrimidines
B20: 11-217 (ssRNA)
RNA: GGGAGGACGAUGCGGCGUGAGCCUUCCAAUGACGUCGUCCUUGGCCAGACGACUCGCCCGA
modifications: 2'-F pyrimidines
B21: 11-158 (ssRNA)
RNA: GGGAGGACGAUGCGGCGAUAGCCUAUUUAUGACCUCGUCCCCGUGCAGACGACUCGCCCGA
modifications: 2'-F pyrimidines
B22: 11-153 (ssRNA)
RNA: GGGAGGACGAUGCGGACAGGUAGUCUUCUAUAGCACUUCCUCCCCCAGACGACUCGCCCGA
modifications: 2'-F pyrimidines
B23: 11-165 (ssRNA)
RNA: GGGAGGACGAUGCGGGUUGAUAGGAGUCAUCAUCGUCUUGUCCGCCAGACGACUCGCCCGA
modifications: 2'-F pyrimidines
B24: 11-17 (ssRNA)
RNA: GGGAGGACGAUGCGGGUUAGAGCGUGACAGUCGUCUUAUCCCGGGUCACAGACGACUCGCCCGA
modifications: 2'-F pyrimidines
B25: 11-6 (ssRNA)
RNA: GGGAGGACGAUGCGGGACGCGUUGAUUCAUCGUCUUAUCCUGCUGCAGACGACUCGCCCGA
modifications: 2'-F pyrimidines
B26: 11-126 (ssRNA)
RNA: GGGAGGACGAUGCGGGUUUGGGUCUUGAUCUCGUCUUGUCCCGUGCAGACGACUCGCCCGA
modifications: 2'-F pyrimidines
B27: 11-222 (ssRNA)
RNA: GGGAGGACGAUGCGGACAUAAGUCUUCUAUAGCUCGUCCUUUGUGCAGACGACUCGCCCGA
modifications: 2'-F pyrimidines
B28: 11-104 (ssRNA)
RNA: GGGAGGACGAUGCGGGUUUGAGUGAUGUCGUCUUGUCCCGCCUGCCAGACGACUCGCCCGA
modifications: 2'-F pyrimidines
B29: 8-101 (ssRNA)
RNA: GGGAGGACGAUGCGGGUGACUCAAAAUGGUGAUCCUCGAUUUCCGCCAGACGACUCGCCCGA
modifications: 2'-F pyrimidines
B30: 11-103 (ssRNA)
RNA: GGGAGGACGAUGCGGUGAUUACCUAUUAUGUCUCGCCCUCUCCAGACGACUCGCCCGA
modifications: 2'-F pyrimidines
B31: 11-59 (ssRNA)
RNA: GGGAGGACGAUGCGGCGUGAGCCUGUAUAUGUCAUUGUUCUCCGGCAGACGACUCGCCCGA
modifications: 2'-F pyrimidines
B32: 8-104 (ssRNA)
RNA: GGGAGGACGAUGCGGGCGACUCAAUCUGAAUCGUCUUGUCCCGUGCAGACGACUCGCCCGA
modifications: 2'-F pyrimidines
B33: 8-125 (ssRNA)
RNA: GGGAGGACGAUGCGGUGUGAACCUGUUUAUGUCAUCUUUUGUCGUCAGACGACUCGCCCGA
modifications: 2'-F pyrimidines
B34: 11-110 (ssRNA)
RNA: GGGAGGACGAUGCGGUGAUUACCUAUUUAUGUCAUGCUCCUCCCCCAGACGACUCGCCCGA
modifications: 2'-F pyrimidines
B35: 11-8 (ssRNA)
RNA: GGGAGGACGAUGCGGUCAGUAUGACUUUUAUAGCACGUUCGCCCCAGACGACUCGCCCGA
modifications: 2'-F pyrimidines
B36: 11-157 (ssRNA)
RNA: GGGAGGACGAUGCGGUCAGAAUGACUUUCAUAGCACGCUUUCCCCAGACGACUCGCCCGA
modifications: 2'-F pyrimidines
B37: 11-166 (ssRNA)
RNA: GGGAGGACGAUGCGGGUUUGAGUUCUGACACGUCUUGUCCCAUGCCAGACGACUCGCCCGA
modifications: 2'-F pyrimidines
B38: 8-122 (ssRNA)
RNA: GGGAGGACGAUGCGGCGGUGUGAACCUGUUUAUGUCCGCGUACCCCAGACGACUCGCCCGA
modifications: 2'-F pyrimidines
B39: 11-212 (ssRNA)
RNA: GGGAGGACGAUGCGGGUUUGAGUUAAACAUCGGUUUUCUCCUGCAGACGACUCGCCCGA
modifications: 2'-F pyrimidines
B40: 11-76 (ssRNA)
RNA: GGGAGGACGAUGCGGUCAGCGGCGCGAGCCUGUUUAUGUCUGCUGCAGACGACUCGCCCGA
modifications: 2'-F pyrimidines
B41: 8-155 (ssRNA)
RNA: GGGAGGACGAUGCGGUGUGAACCUAUUUAUGCCAUCUCGAGUGCCCAGACGACUCGCCCGA
modifications: 2'-F pyrimidines
B42: 8-165 (ssRNA)
RNA: GGGAGGACGAUGCGGCGAGAGCCUAUUUAUGUCAUCAUGCCUGUGCAGACGACUCGCCCGA
modifications: 2'-F pyrimidines
B43: 8-171 (ssRNA)
RNA: GGGAGGACGAUGCGGCGGGAGCCUUUUUAUGUCAUCAUGUCUGUGCAGACGACUCGCCCGA
modifications: 2'-F pyrimidines
B44: 8-114 (ssRNA)
RNA: GGGAGGACGAUGCGGCGUGAGCCUAUUUAUGUCAUCAUGUCUGUGCAGACGACUCGCCCGA
modifications: 2'-F pyrimidines

Kd data for 44 molecules are collected here from patent US6344321, “Nucleic acid ligands which bind to hepatocyte growth factor/scatter factor (HGF/SF) or its receptor c-met” (Gilead Sciences, Inc.).

The series deals with HGF (hepatocyte growth factor/scatter factor) (UniProt P14210;P14210 P14210:32-494,P14210:495-728). In words: filter; HBSMC, 37C. The settings on record: tags: R&D Systems. On the procedure: In binding reactions, RNA concentrations were kept as low as possible—between 1 and 20 pM—to ensure equilibrium in conditions of protein excess. Oligonucleotides were incubated for 15 minutes at 37° C. with varying amounts of the protein in 43 µl of the binding buffer. Thirty-two microliters of each binding mixture placed on pre-wet 0.45 µm nitrocellulose filters under suction. Each well was immediately washed with 0.5 ml binding buffer. The amount of radioactivity retained on the filters was quantitated by imaging. The radioactivity that bound to filters in the absence of protein was used for background correction. The percentage of input oligonucleotide retained on each filter spot was plotted against the corresponding log protein concentration. The nonlinear least square method was used to obtain the dissociation constant (K_d; reference Jellinek, Lynott et al. 1993, Proc. Natl. Acad. Sci. USA. 90:11227–31).
Chain of HGF (hepatocyte growth factor/scatter factor) (P14210 32-494, chain 1 of 2): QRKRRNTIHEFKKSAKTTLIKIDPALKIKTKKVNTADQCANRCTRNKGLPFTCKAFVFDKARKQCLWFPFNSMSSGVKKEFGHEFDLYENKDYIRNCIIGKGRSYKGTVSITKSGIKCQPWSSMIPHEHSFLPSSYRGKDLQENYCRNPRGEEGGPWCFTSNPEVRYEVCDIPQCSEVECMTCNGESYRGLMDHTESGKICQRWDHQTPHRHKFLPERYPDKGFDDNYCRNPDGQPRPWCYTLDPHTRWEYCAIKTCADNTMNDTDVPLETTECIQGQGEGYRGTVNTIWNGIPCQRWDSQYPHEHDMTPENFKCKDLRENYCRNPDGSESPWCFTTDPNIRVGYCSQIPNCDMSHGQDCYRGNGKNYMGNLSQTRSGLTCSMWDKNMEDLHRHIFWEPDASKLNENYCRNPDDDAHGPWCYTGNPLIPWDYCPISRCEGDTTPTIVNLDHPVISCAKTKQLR
Chain of HGF (hepatocyte growth factor/scatter factor) (P14210 495-728, chain 2 of 2): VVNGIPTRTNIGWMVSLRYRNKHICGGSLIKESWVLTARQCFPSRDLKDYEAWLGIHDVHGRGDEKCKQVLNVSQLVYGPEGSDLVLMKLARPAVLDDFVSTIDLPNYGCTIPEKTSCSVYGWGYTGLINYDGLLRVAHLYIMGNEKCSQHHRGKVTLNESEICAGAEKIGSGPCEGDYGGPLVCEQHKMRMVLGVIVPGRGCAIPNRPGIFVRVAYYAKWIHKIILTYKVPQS
B1 had a Kd of 120 pM. This lies in the sub-nanomolar range.
On to B2, for which binding was put at a Kd of 170 pM.
In turn, B3 came in with a Kd of 130 pM.
As for B4, the figure is 130 pM; as for B5, 210 pM; as for B6, 120 pM.
In the case of B7, the affinity, expressed as Kd, was 60 pM. Against the preceding molecule, the Kd is about 2-fold lower.
As for B8, the figure is 110 pM; as for B9, 110 pM; as for B10, 160 pM.
As for B11, the Kd turned out to be 83 pM.
Consider B12, for which the dissociation constant Kd amounted to 82 pM.
The molecule B13 showed an equilibrium dissociation constant (Kd) of 95 pM.
In turn, B14 showed a Kd of 310 pM.
Molecule B15 showed a dissociation constant (Kd) of 120 pM.
The value for B16 was 99 pM; that for B17 was 110 pM.
As for B18, the figure is 91 pM; as for B19, 74 pM; as for B20, 71 pM.
As for B21, the figure is 170 pM; as for B22, 190 pM.
For B23, the Kd was found to be 73 pM.
Turning to B24, binding was characterised by a dissociation constant (Kd) of 130 pM.
Molecule B25 registered a dissociation constant (Kd) of 240 pM.
The molecule B26 had a Kd of 170 pM.
B27 displayed a Kd of 77 pM.
Take B28: binding was put at a Kd of 91 pM.
The value for B29 was 95 pM.
As to B30, binding was characterised by a dissociation constant (Kd) of 200 pM.
As for B31, the figure is 110 pM; as for B32, 50 pM.
B33 had a Kd of 75 pM.
As for B34, the figure is 86 pM.
The value for B35 was 150 pM; that for B36 was 260 pM; that for B37 was 79 pM.
As for B38, binding was put at a Kd of 97 pM.
The value for B39 was 75 pM; that for B40 was 76 pM.
B41 displayed an equilibrium dissociation constant (Kd) of 93 pM.
As for B42, the figure is 100 pM; as for B43, 120 pM.
Turning to B44, the Kd was found to be 71 pM.
